From IntAct's records for PubMed 24793651

B1: Autophagy-related protein 13 (Saccharomyces cerevisiae), Q06628 (parent)
chain: MVAEEDIEKQVLQLIDSFFLKTTLLICSTESSRYQSSTENIFLFDDTWFEDHSELVSELPEIISKWSHYDGRKELPPLVVETYLDLRQLNSSHLVRLKDHEGHLWNVCKGTKKQEIVMERWLIELDNSSPTFKSYSEDETDVNELSKQLVLLFRYLLTLIQLLPTTELYQLLIKSYNGPQNEGSSNPITSTGPLVSIRTCVLDGSKPILSKGRIGLSKPIINTYSNALNESNLPAHLDQKKITPVWTKFGLLRVSVSYRRDWKFEINNTNDELFSARHASVSHNSQGPQNQPEQEGQSDQDIGKRQPQFQQQQQPQQQQQQQQQQQRQHQVQTQQQRQIPDRRSLSLSPCTRANSFEPQSWQKKVYPISRPVQPFKVGSIGSQSASRNPSNSSFFNQPPVHRPSMSSNYGPQMNIEGTSVGSTSKYSSSFGNIRRHSSVKTTENAEKVSKAVKSPLQPQESQEDLMDFVKLLEEKPDLTIKKTSGNNPPNINISDSLIRYQNLKPSNDLLSEDLSVSLSMDPNHTYHRGRSDSHSPLPSISPSMHYGSLNSRMSQGANASHLIARGGGNSSTSALNSRRNSLDKSSNKQGMSGLPPIFGGESTSYHHDNKIQKYNQLGVEEDDDDENDRLLNQMGNSATKFKSSISPRSIDSISSSFIKSRIPIRQPYHYSQPTTAPFQAQAKFHKPANKLIDNGNRSNSNNNNHNGNDAVGVMHNDEDDQDDDLVFFMSDMNLSKEG
partner: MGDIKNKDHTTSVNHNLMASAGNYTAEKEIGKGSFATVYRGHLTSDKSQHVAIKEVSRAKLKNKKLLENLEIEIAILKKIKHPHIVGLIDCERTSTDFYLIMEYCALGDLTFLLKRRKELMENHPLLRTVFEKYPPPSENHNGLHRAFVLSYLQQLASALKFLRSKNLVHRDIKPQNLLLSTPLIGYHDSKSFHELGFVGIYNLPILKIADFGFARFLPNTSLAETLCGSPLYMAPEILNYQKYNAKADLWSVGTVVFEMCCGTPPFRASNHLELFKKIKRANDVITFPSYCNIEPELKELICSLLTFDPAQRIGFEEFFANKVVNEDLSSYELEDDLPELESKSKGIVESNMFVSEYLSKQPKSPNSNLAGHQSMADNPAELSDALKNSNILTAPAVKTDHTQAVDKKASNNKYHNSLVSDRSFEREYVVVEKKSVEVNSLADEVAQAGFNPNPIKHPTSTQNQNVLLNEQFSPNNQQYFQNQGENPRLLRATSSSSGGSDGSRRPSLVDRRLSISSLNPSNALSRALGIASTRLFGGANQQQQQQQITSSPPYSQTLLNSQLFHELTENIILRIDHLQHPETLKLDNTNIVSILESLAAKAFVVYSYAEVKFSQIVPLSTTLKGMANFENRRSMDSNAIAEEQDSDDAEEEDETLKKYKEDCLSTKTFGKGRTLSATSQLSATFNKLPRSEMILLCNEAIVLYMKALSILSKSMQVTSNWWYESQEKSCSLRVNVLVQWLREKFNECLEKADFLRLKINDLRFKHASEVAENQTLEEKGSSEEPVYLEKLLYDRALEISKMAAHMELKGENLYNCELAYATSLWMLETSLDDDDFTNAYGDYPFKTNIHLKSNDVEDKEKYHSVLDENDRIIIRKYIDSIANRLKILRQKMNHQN
B2: Autophagy-related protein 13 (Saccharomyces cerevisiae), Q06628 (parent)
chain: B1 chain
partner: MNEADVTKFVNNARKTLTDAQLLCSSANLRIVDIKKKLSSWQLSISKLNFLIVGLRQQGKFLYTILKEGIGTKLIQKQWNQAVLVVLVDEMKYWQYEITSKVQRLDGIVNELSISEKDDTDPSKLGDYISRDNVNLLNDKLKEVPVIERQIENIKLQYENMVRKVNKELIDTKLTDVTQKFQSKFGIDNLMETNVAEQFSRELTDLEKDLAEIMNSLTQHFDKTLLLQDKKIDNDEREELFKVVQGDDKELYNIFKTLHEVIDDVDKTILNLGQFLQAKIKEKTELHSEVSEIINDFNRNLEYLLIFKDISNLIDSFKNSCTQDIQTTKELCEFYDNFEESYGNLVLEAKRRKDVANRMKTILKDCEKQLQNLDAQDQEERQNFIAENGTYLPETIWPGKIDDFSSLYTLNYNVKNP
B3: Autophagy-related protein 17 (Saccharomyces cerevisiae), Q06410 (parent)
chain: B2 partner
partner: B1 chain

Variants of: B1
Settings: with atg1_yeast ATG1, P53104

effect of a mutation on the interaction	Variant
disrupting interaction strength	L472A
disrupting interaction strength	F468A

Variants of: B1
Settings: with atg1_yeast ATG1, P53104
Remark: another data set of the same source

effect of a mutation on the interaction	Variant
decreasing interaction strength	F468A

Variants of: B1
Settings: with atg1_yeast ATG1, P53104
Remark: another data set of the same source

effect of a mutation on the interaction	Variant
disrupting interaction strength	F468A;L472A

Variants of: B2
Settings: with atg17_yeast ATG17, Q06410

effect of a mutation on the interaction	Variant
disrupting interaction strength	F430A;I433A
disrupting interaction strength	R434A;R435A
disrupting interaction strength	S428A;S429A

Variants of: B2
Settings: with atg17_yeast ATG17, Q06410
Remark: another data set of the same source

effect of a mutation on the interaction	Variant
disrupting interaction strength	S429D

Variants of: B3
Settings: with atg13_yeast ATG13, Q06628

effect of a mutation on the interaction	Variant
disrupting interaction strength	MNEADVTKFVNNARKTLTDAQLLCSSANLRIVDIKKKLSSWQLSISKLNFLIVGLRQQGKFLYTILKEGIGTKLIQKQWNQAVLVVLVDEMKYWQYEITSKVQRLDGIVNELSISEKDDTDPSKLGDYISRDNVNLLNDKLKEVPVIERQIENIKLQYENMVRKVNKELIDTKLTDVTQKFQSKFGIDNLMETNVAEQFSRELTDLEKDLAEIMNSLTQHFDKTLLLQDKKIDNDEREELFKVVQGADKELYNIFKTLHEVIDDVDKTILNLGQFLQAKIKEKTELHSEVSEIINDFNRNLEYLLIFKDISNLIDSFKNSCTQDIQTTKELCEFYDNFEESYGNLVLEAKRRKDVANRMKTILKDCEKQLQNLDAQDQEERQNFIAENGTYLPETIWPGKIDDFSSLYTLNYNVKNP [D247A]
decreasing interaction strength	MNEADVTKFVNNARKTLTDAQLLCSSANLRIVDIKKKLSSWQLSISKLNFLIVGLRQQGKFLYTILKEGIGTKLIQKQWNQAVLVVLVDEMKYWQYEITSKVQRLDGIVNELSISEKDDTDPSKLGDYISRDNVNLLNDKLKEVPVIERQIENIKLQYENMVRKVNKELIDTKLTDVTQKFQSKFGIDNLMETNVAEQFSRELTDLEKDLAEIMNSLTQHFDKTLLLQDKKIDNDEREEAFKAVQGDDKELYNIFKTLHEVIDDVDKTILNLGQFLQAKIKEKTELHSEVSEIINDFNRNLEYLLIFKDISNLIDSFKNSCTQDIQTTKELCEFYDNFEESYGNLVLEAKRRKDVANRMKTILKDCEKQLQNLDAQDQEERQNFIAENGTYLPETIWPGKIDDFSSLYTLNYNVKNP [L240A;V243A]
decreasing interaction strength	MNEADVTKFVNNARKTLTDAQLLCSSANLRIVDIKKKLSSWQLSISKLNFLIVGLRQQGKFLYTILKEGIGTKLIQKQWNQAVLVVLVDEMKYWQYEITSKVQRLDGIVNELSISEKDDTDPSKLGDYISRDNVNLLNDKLKEVPVIERQIENIKLQYENMVRKVNKELIDTKLTDVTQKFQSKFGIDNLMETNVAEQFSRELTDLEKDLAEAMNALTQHFDKTLLLQDKKIDNDEREELFKVVQGDDKELYNIFKTLHEVIDDVDKTILNLGQFLQAKIKEKTELHSEVSEIINDFNRNLEYLLIFKDISNLIDSFKNSCTQDIQTTKELCEFYDNFEESYGNLVLEAKRRKDVANRMKTILKDCEKQLQNLDAQDQEERQNFIAENGTYLPETIWPGKIDDFSSLYTLNYNVKNP [I213A;S216A]
disrupting interaction strength	MNEADVTKFVNNARKTLTDAQLLCSSANLRIVDIKKKLSSWQLSISKLNFLIVGLRQQGKFLYTILKEGIGTKLIQKQWNQAVLVVLVDEMKYWQYEITSKVQRLDGIVNELSISEKDDTDPSKLGDYISRDNVNLLNDKLKEVPVIERQIENIKLQYENMVRKVNKELIDTKLTDVTQKFQSKFGIDNLMETNVAEQFSRELTDLEKDLAEIMNSLTQHFDKTLLLQDKKIDNDEREELFKVVQGADKALYNIFKTLHEVIDDVDKTILNLGQFLQAKIKEKTELHSEVSEIINDFNRNLEYLLIFKDISNLIDSFKNSCTQDIQTTKELCEFYDNFEESYGNLVLEAKRRKDVANRMKTILKDCEKQLQNLDAQDQEERQNFIAENGTYLPETIWPGKIDDFSSLYTLNYNVKNP [D247A;E250A]
